{
  "source": "paper PMC8215385",
  "about": "“Design of a Proteolytically Stable Sodium-Calcium Exchanger 1 Activator Peptide for In Vivo Studies” (Frontiers in Pharmacology, 2021)",
  "molecules": {"B1": {"name": "NOPT-TAT (peptide)", "peptide": "[NMePro]YKEIEQLIELANYQVRKKRRQRRR", "notes": "also called TAT-conjugated NOPT; cell-permeable NOPT; source: synthetic peptide (Genscript, >80% purity)"}, "B2": {"name": "biotin-ahx-pSer68-PLMcyt (peptide)", "peptide": "{Biotin-Ahx}-KRCRCKFNQQQRTGEPDEEEGTFRSSIRRLSSRRR", "modifications": "also: phosphoserine at Ser68 (numbering not mappable from notes)", "notes": "cytoplasmic part of phospholemman (PLM, FXYD1), printed as [residues removed]; Immobilised on SA chips (SPR) and used as overlay probe on the peptide arrays; also called biotin-pSer68-PLM; biotin-pSer68-PLMcyt; source: synthetic peptide (Genscript, >80% purity)"}},
  "key": {"[1]": {"target": "T1, pSer68-PLMcyt (Mus musculus, UniProt Q9Z239)", "T1 construct": "purchased Genscript; host or cells: synthetic peptide", "T1 sequence (Q9Z239 58-92 limits assumed)": "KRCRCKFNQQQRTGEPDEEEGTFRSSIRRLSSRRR", "assay": "Peptide array overlay with biotin-pSer68-PLM", "type": "binding", "details": "membrane-synthesized peptides overlaid with 5 μM biotin-pSer68-PLM, anti-biotin-HRP", "from_the_text": "Peptides on cellulose membranes were synthesized using a Multipep automated peptide synthesizer (INTAVIS Bioanalytical Instruments AG, Koeln, Germany) ([Frank, 1992], [Frank, 2002]). Peptides in solution were synthesized (listed below) at >80% purity by Genscript (Corporation, Piscataway, NJ, United States). For some of the peptides a cell-permeable TAT ([…]) or a biotin tag was included at either N- or C-terminus with or without an ahx-linker in between to avoid any potential steric hindrance.\nPeptide array membranes were blocked in 1% casein for 2–4 h and overlaid with 5 μM of biotinylated pSer68-PLM peptide in 1% casein overnight at 4°C. The membranes were then washed three times for 10 min in TBS-T before incubation with anti-biotin-horseradish peroxidase (HRP) for 1 h (see Antibodies and Recombinant Protein). Peptide-bound spots were detected as described in the immunoblotting section."}, "[2]": {"target": "B2", "assay": "SPR; Biacore X100; biotinylated pSer68-PLMcyt or PLMcyt immobilised on SA chip (~50-200 RU); His-TF-NCX1cyt dialysed into running buffer injected at a range of concentrations (single cycles), 30 or 100 ul/min, 180 s, dissociation 600 s; 1:1 (Langmuir) fit"}, "[3]": {"target": "biotin-ahx-PLMcyt", "assay": "SPR; Biacore X100; biotinylated pSer68-PLMcyt or PLMcyt immobilised on SA chip (~50-200 RU); His-TF-NCX1cyt dialysed into running buffer injected at a range of concentrations (single cycles), 30 or 100 ul/min, 180 s, dissociation 600 s; 1:1 (Langmuir) fit"}, "[4]": {"tested_on": "NCX1", "assay": "NCX activity (NCX rate constant, 1/τcaff) in isolated adult cardiomyocytes", "type": "cell-based, mouse", "details": "1 μM, vs TAT-tagged scrambled control", "experimental": "8 weeks old C57BL6/J mice were randomized to SHAM or an aortic banding (AB) operation using o-rings (ORAB) as previously described ([Melleby et al., 2018]). Mice were anesthetized in a combination of 5% isoflurane and 95% O2, before endotracheal intubation and ventilation using a MiniVent rodent ventilator (Harvard Apparatus, United States). Left sided hemothoracotomy in the third intercostal space was performed, before dissection and placement of the o-ring around the ascending aorta. Animals were allowed to recover, and post-operative analgesia was achieved by injections of buprenorphine in accordance with the institutional guidelines. […]\n(§1) Isolated cardiomyocytes were loaded for 10 min with 5 μM fluo-4 AM ester (Molecular Probes, Eugene, OR, United States) at RT. […] Whole-cell Ca^2+ transients were recorded in field stimulated cardiomyocytes at 0.5 Hz (2.5 ms bipolar pulses) and 37°C with Cairn Research Optoscan Monochromator (excitation 485 nm, emission 515 nm long pass) (Cairn Research Ltd., United Kingdom). Regular Ca^2+ transients were recorded for at least 3 min per cell, before the field stimulation was stopped and 10 mM caffeine was added. Background fluorescence was recorded for each cell. […] The NCX rate constant was calculated as: 1/τcaff ([Díaz et al., 1997]), as the non SERCA2, non-NCX mediated Ca^2+ removal was considered negligible."}, "[5]": {"tested_on": "adult mouse cardiomyocytes", "assay": "Ca2+ transients and SR Ca2+ load in isolated adult cardiomyocytes", "type": "cell-based", "details": "1 μM, vs scrambled control", "experimental": "8 weeks old C57BL6/J mice were randomized to SHAM or an aortic banding (AB) operation using o-rings (ORAB) as previously described ([Melleby et al., 2018]). Mice were anesthetized in a combination of 5% isoflurane and 95% O2, before endotracheal intubation and ventilation using a MiniVent rodent ventilator (Harvard Apparatus, United States). Left sided hemothoracotomy in the third intercostal space was performed, before dissection and placement of the o-ring around the ascending aorta. Animals were allowed to recover, and post-operative analgesia was achieved by injections of buprenorphine in accordance with the institutional guidelines. Animal experiments was approved by the Norwegian National Animal Research Committee (FDU 7040).\nCardiomyocytes were isolated based on a similar protocol as recently described ([Ackers-Johnson et al., 2016]). Mice were anesthetized and mask ventilated with a combination of 3% isoflurane and 97% O2. Deep surgical anesthesia was confirmed by abolished pain reflexes. […] Then 7 ml of buffer A (in mM: HEPES 25, NaCl 130, KCl 5.4, NaH2PO4 0.4, MgCl2 0.5, D-glucose 22, pH 7.4) with 5 mM EDTA was injected into the right ventricle. Thereafter, the aorta was clamped and the heart was excised. 10 ml of the buffer solution and thereafter 3 ml of the buffer solution without EDTA were injected into the left ventricle over 2–5 min. Then preheated solution A containing 0.8 mg/ml collagenase II was injected into the left ventricle over ∼20 min. The atria and right ventricle were removed, and the cardiomyocytes were isolated according to the same procedure as described for the Langendorff-based isolation of rat cardiomyocytes (described further below).\nas §1, with “RT. The superfusate contained (mM): NaCl 140, HEPES 5, KCl 5.4, CaCl2 1, MgCl2 0.5, D-glucose 5.5 and NaH2PO4 0.4. The pH was adjusted to 7.4.” for “RT.”, “cell. Ca^2+ transients amplitude and SR Ca^2+ load was calculated as maximal fluorescence (F) divided on resting fluorescence (F0) on field stimulated and caffeine evoked Ca^2+ transients, respectively (See Figure 4I for illustration of protocol details).” for “cell.”"}, "[6]": {"target": "B2", "assay": "SPR", "details": "both partners purified"}, "[7]": {"target": "T2, OPT with three amino acids deleted at its N-terminus", "T2 construct": "source: synthetic peptide, spot-synthesised on cellulose membrane", "T2 peptide": "YKEIEQLIELANYQVLS", "assay": "peptide or protein array; peptides spot-synthesised on cellulose membranes, blocked in 1% casein, overlaid with 5 uM biotinylated pSer68-PLM peptide in 1% casein overnight at 4°C; detected with anti-biotin-HRP", "details": "both partners purified"}, "[8]": {"target": "T3, OPT with two amino acids deleted at its C-terminus", "T3 construct": "C-terminus'; source: synthetic peptide, spot-synthesised on cellulose membrane", "T3 peptide": "YHPYKEIEQLIELANYQV", "assay": "peptide or protein array; peptides spot-synthesised on cellulose membranes, blocked in 1% casein, overlaid with 5 uM biotinylated pSer68-PLM peptide in 1% casein overnight at 4°C; detected with anti-biotin-HRP", "details": "both partners purified"}, "[9]": {"target": "T4, mini-OPT", "T4 construct": "residues 3-18 of OPT; source: synthetic peptide, spot-synthesised on cellulose membrane", "T4 peptide": "PYKEIEQLIELANYQV", "assay": "peptide or protein array; peptides spot-synthesised on cellulose membranes, blocked in 1% casein, overlaid with 5 uM biotinylated pSer68-PLM peptide in 1% casein overnight at 4°C; detected with anti-biotin-HRP", "details": "both partners purified"}},
  "note": "Non-standard residues stand in square brackets, D forms with d. No end group written: not given here. *: point of attachment. Biotin = O=C1N[C@H]2[C@H](CS[C@H]2CCCCC(=O)*)N1; NMePro = CN1CCC[C@H]1C(=O)*; Ahx = NCCCCCC(=O)O",
  "data": [
    {"molecule": "E6G: E6G substitution of mini-OPT on the peptide array; negative control in pull down (PYKEIGQLIELANYQV)", "values": [
      {"measurement": "pSer68-PLM binding on peptide array", "setting": "[1]", "result": "abolished pSer68-PLM binding"}
    ]},
    {"molecule": "HIS-TF-NCX1cyt (domain or fragment)", "values": [
      {"measurement": "Kd", "setting": "[2]", "result": 4.3, "unit": "nM"},
      {"measurement": "koff", "setting": "[2]", "result": 0.0011, "unit": "s⁻¹"},
      {"measurement": "kon", "setting": "[2]", "result": 380000, "unit": "M⁻¹ s⁻¹"},
      {"measurement": "Kd", "setting": "[3]", "result": 4.1, "unit": "nM"},
      {"measurement": "koff", "setting": "[3]", "result": 0.004, "unit": "s⁻¹"},
      {"measurement": "kon", "setting": "[3]", "result": "1.1e+06", "unit": "M⁻¹ s⁻¹"}
    ]},
    {"molecule": "NOPT-TAT: NOPT made cell permeable by addition of a TAT tag to its C-terminus ([NMePro]YKEIEQLIELANYQVRKKRRQRRR)", "values": [
      {"measurement": "increase of NCX1 activity (NCX1 rate constant)", "setting": "[4]; cardiomyocytes from SHAM-operated mice, 10–13 cells from three mice", "result": "approximately 40%"},
      {"measurement": "increase of NCX1 activity (NCX1 rate constant)", "setting": "[4]; cardiomyocytes from aorta banded HF mice, 6–7 cells from three mice", "result": "approximately 60%"},
      {"measurement": "Ca2+ transient amplitude", "setting": "[5]; HF cardiomyocytes", "result": "did not change"},
      {"measurement": "sarcoplasmic reticulum (SR) Ca2+ load", "setting": "[5]; HF cardiomyocytes", "result": "did not change"},
      {"measurement": "Ca2+ transient amplitude", "setting": "[5]; SHAM cardiomyocytes", "result": "did not change"},
      {"measurement": "sarcoplasmic reticulum (SR) Ca2+ load", "setting": "[5]; SHAM cardiomyocytes", "result": "did not change"}
    ]},
    {"molecule": "PYKEIEQLIELANYQV [mini-OPT]", "values": [
      {"measurement": "pSer68-PLM binding on peptide array", "setting": "[1]", "result": "minimum sequence that was required to bind pSer68-PLMcyt"}
    ]},
    {"molecule": "Y14A: Y14A substitution of mini-OPT on the peptide array; negative control in pull down (PYKEIEQLIELANAQV)", "values": [
      {"measurement": "pSer68-PLM binding on peptide array", "setting": "[1]", "result": "abolished pSer68-PLM binding"}
    ]},
    {"molecule": "B1", "values": [
      {"measurement": "Kd", "setting": "[6]", "result": 129, "unit": "nM"}
    ]},
    {"molecule": "B2", "values": [
      {"measurement": "binding result", "setting": "[7]", "result": "binds"},
      {"measurement": "binding result", "setting": "[8]", "result": "binds"},
      {"measurement": "binding result", "setting": "[9]", "result": "binds"}
    ]}
  ]
}
